Reference: publication PMC11018632, “The CB1 receptor interacts with cereblon and drives cereblon deficiency-associated memory shortfalls” (EMBO Molecular Medicine, 2024)
Blank lines part the entries; values can stand above or below the binder they belong to.

Experiments:
[1] = target: T1, 5-IAF-labelled 6xHis-tagged human CB1R carboxy-terminal domain (hCB1R-CTD, amino acids 400-472) (human, UniProt P21554 400-472, labelled with 5-(iodoacetamido)fluorescein (5-IAF)); assay: FP
T1 chain: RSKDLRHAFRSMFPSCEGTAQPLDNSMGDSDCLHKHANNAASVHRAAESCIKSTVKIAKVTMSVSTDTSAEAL

[2] = target: T2, 6xHis-tagged human cereblon (hCRBN), recombinant (human, UniProt Q96SW2 1-442); assay: fluorescence polarisation; saturation binding; constant 100 nM 5-IAF-hCB1R-CTD and increasing amounts of hCRBN (~0-100 µM); fitted to a one-site equation for Kd; conditions: both partners purified
T2 construct: cereblon/CRBN, human; human CRBN cDNA inserted in the pBH4 vector; the introduction speaks of the 442 amino-acid protein; No tag cleavage is described; also called His6-tagged CRBN; unlabelled human CRBN

Kd [1]: 2.81 µM
B1: 6xHis-tagged human cereblon (hCRBN), recombinant (natural protein)
chain: MAGEGDQQDAAHNMGNHLPLLPAESEEEDEMEVEDQDSKEAKKPNIINFDTSLPTSHTYLGADMEEFHGRTLHDDDSCQVIPVLPQVMMILIPGQTLPLQLFHPQEVSMVRNLIQKDRTFAVLAYSNVQEREAQFGTTAEIYAYREEQDFGIEIVKVKAIGRQRFKVLELRTQSDGIQQAKVQILPECVLPSTMSAVQLESLNKCQIFPSKPVSREDQCSYKWWQKYQKRKFHCANLTSWPRWLYSLYDAETLMDRIKKQLREWDENLKDDSLPSNPIDFSYRVAACLPIDDVLRIQLLKIGSAIQRLRCELDIMNKCTSLCCKQCQETEITTKNEIFSLSLCGPMAAYVNPHGYVHETLTVYKACNLNLIGRPSTEHSWFPGYAWTVAQCKICASHIGWKFTATKKDMSPQKFWGLTRSALLPTIPDTEDEISPDKVILCL

binding result [2]: binds
B2: 5-IAF-labelled 6xHis-tagged human CB1R carboxy-terminal domain (hCB1R-CTD, amino acids 400-472) (domain or fragment, UniProt P21554 400-472, looked up)
chain: T1 chain
modifications: labelled with 5-(iodoacetamido)fluorescein (5-IAF)
notes: type-1 cannabinoid receptor (CB1R), human, carboxy-terminal domain, amino acids 400-472; The construct was made in earlier work (Costas-Insua et al, 2021); The results section gives aa 408-472 for the CTD of the earlier proteomic screen; also called 5-IAF-hCB1R-CTD; His6-tagged CB1R-CTD
